In article PMC3226747 (Nature, 2011) one finds Kd data, which are given here for one molecule.

What is called Kd is the free concentration of one partner at which half of the binding sites on the other are occupied at equilibrium, for simple one-to-one binding. Lower therefore signals a tighter complex.

The experiment has as its target T1, MitTxβ (Micrurus tener tener (Texas coral snake), UniProt G9I930 31-149, disulfide bonds).
T1 sequence: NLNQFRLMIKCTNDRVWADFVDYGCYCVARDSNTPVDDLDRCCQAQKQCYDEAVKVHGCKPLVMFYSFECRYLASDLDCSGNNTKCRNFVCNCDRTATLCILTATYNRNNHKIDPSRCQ
As to the kind of experiment: ITC.

Where no end group is shown, it is not given here. [ ]: non-standard residue; d: D form. pGlu = O=C1CC[C@@H](C(=O)O)N1

B1: MitTxα (natural protein)
chain: [pGlu]IRPAFCYEDPPFFQKCGAFVDSYYFNRSRITCVHFFYGQCDVNQNHFTTMSECNRVCHG
modifications: not fully specified (bridges); also: disulfide bonds, pairing not given here
Consider B1, for which the Kd is 12.2 ± 3.1 nM.
